# Numbering of substitutions follows the chain as printed.
# B1: BsAb2-6-001 (bispecific antibody)
# heavy: not shown
# light: QTVVTQEPSLTVSPGGTVTLTCRSSTGAVTTSNYANWVQQKPGQAPRALIGGTNKRAPWTPARFSGSLLGDKAALTLSGVQPEDEAEYYCALWYSNLWVFGGGTKLTVLRTVAAPSVFIFPPSDEQLKSGTASVVCLLNNFYPREAKVQWKVDNALQSGNSQESVTEQDSKDSTYSLSSTLTLSKADYEKHKVYACEVTHQGLSSPVTKSFNRGEC
# notes: also called VH1VL1; SCG2-6-001
# B2: BsAb2-6-011 (bispecific antibody)
# heavy: not shown
# light: B1 light
# notes: also called VH3VL1; SCG2-6-011
# B3: BsAb2-6-016 (bispecific antibody)
# heavy: not shown
# light: B1 light
# notes: also called VH4VL1; SCG2-6-016
# B4: BsAb2-5-011 (bispecific antibody)
# heavy: not shown
# light: B1 light
# notes: also called VH3VL1; SCG2-5-011
# B5: BsAb2-6-026 (bispecific antibody)
# heavy: not shown
# light: B1 light
# notes: also called VH6VL1; SCG2-6-026
# B6: BsAb2-6-017 (bispecific antibody)
# heavy: not shown
# light: B1 light with A48G, W59G
# notes: also called VH4VL2; SCG2-6-017
# B7: BsAb2-6-021 (bispecific antibody)
# heavy: not shown
# light: B1 light
# notes: also called VH5VL1; SCG2-6-021
# B8: BsAb2-6-006 (bispecific antibody)
# heavy: not shown
# light: B1 light
# notes: also called VH2VL1; SCG2-6-006
# B9: BsAb2-6 (C8 scFv fused to the C-terminus of the heavy chain of the murine anti-CD3 Ab via a linker) (bispecific antibody)
# chain 1: not shown
# chain 2: QAVVTQESALTTSPGETVTLTCRSSTGAVTTSNYANWVQEKPDHLFTGLIGGTNKRAPGVPARFSGSLIGDKAALTITGAQTEDEAIYFCALWYSNLWVFGGGTKLTVLRTVAAPSVFIFPPSDEQLKSGTASVVCLLNNFYPREAKVQWKVDNALQSGNSQESVTEQDSKDSTYSLSSTLTLSKADYEKHKVYACEVTHQGLSSPVTKSFNRGEC
# B10: BsAb2-5 (C8 scFv fused to the N-terminal of the heavy chain of the murine anti-CD3 mAb) (bispecific antibody)
# chain 1: not shown
# chain 2: B9 chain 2
# Target: T1, HBsAg recombinant protein (hepatitis B virus)
# T1 chain: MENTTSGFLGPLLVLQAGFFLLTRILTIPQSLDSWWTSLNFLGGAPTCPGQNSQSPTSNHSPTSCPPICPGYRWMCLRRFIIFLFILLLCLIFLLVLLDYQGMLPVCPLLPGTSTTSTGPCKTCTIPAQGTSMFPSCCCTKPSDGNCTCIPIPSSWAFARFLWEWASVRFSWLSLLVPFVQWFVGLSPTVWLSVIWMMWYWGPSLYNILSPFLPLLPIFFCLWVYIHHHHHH
# Assay: ELISA, recombinant protein
# Protocol: (§1) Anti-HBsAg/anti-CD3 bispecific antibodies generated in Example 1 are analyzed by standard ELISA techniques for their binding properties to HBsAg, human CD3E, and rhesus CD3ε recombinant protein, respectively.
row,Binder,EC50 [nM]
1,B1,0.5
2,B2,0.44
3,B3,0.71
4,B4,0.2
5,B5,0.69
6,B6,0.6
7,B7,0.8
8,B8,0.31

# Target: T2, human CD3ε recombinant protein (human, UniProt P07766 23-126)
# T2 construct: also called human CD3E; huCD3ε
# T2 sequence (P07766 23-126 limits assumed): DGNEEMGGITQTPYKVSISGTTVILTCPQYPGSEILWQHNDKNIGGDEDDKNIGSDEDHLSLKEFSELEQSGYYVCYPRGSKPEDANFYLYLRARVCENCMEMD
# Assay: ELISA, recombinant protein
# Protocol: as §1
row,Binder,EC50 [nM]
1,B2,0.66
2,B3,0.8
3,B4,1.85
4,B6,0.4

# Target: T3, rhesus CD3ε recombinant protein (rhesus)
# T3 construct: also called rhesus CD38 [sic]
# Assay: ELISA, recombinant protein
# Protocol: as §1
row,Binder,EC50 [nM]
1,B1,0.29
2,B2,0.34
3,B3,0.36
4,B4,1.99
5,B5,0.63
6,B6,0.15
7,B7,0.83
8,B8,0.76

# Target: T1, HBsAg recombinant protein
# Assay: ELISA, recombinant HBsAg
row,Binder,EC50 (read off the curve) [nM]
1,B9,~0.2

# Target: T1, HBsAg recombinant protein
# Assay: ELISA, recombinant HBsAg
# Remark: another data set of the same source
row,Binder,EC50 (read off the curve) [nM]
1,B9,~0.3

# Target: T2, human CD3ε recombinant protein
# Assay: ELISA, recombinant human CD3ε
row,Binder,EC50 (read off the curve) [nM]
1,B9,0.1 to 0.2

# Target: T2, human CD3ε recombinant protein
# Assay: ELISA, recombinant human CD3ε
# Remark: another data set of the same source
row,Binder,EC50 (read off the curve) [nM]
1,B9,~0.3

# Target: T3, rhesus CD3ε recombinant protein
# Assay: ELISA, recombinant rhesus CD3ε
row,Binder,EC50 (read off the curve) [nM]
1,B9,~0.07

# Target: T3, rhesus CD3ε recombinant protein
# Assay: ELISA, recombinant rhesus CD3ε
# Remark: another data set of the same source
row,Binder,EC50 (read off the curve) [nM]
1,B9,~0.07

# Target: T1, HBsAg recombinant protein
# Assay: SPR (Biacore), bsAb on protein A chip, antigen in flow
# Protocol: (§2) Binding affinity of anti-HBsAg/anti-CD3 constructs to HBsAg and human/cynomolgus CD3ε is characterized by SPR using Biacore […] (GE Healthcare). Specifically, the anti-HBsAg/anti-CD3 bispecific antibodies were immobilized on protein A chip at a flow rate of 10 μL/min, and gradient dilution of huCD3ε, cynoCD3ε, or HBsAg antigen was used as the mobile phase. The binding condition was 10 μL/min×180 s. The dissociation condition was 10 μL/min×400 s and the regeneration conditions were 30 μL/min×30 s at pH1.5 Gly. FIG. 10 and FIG. 11 show the kinetic curves of bsAb-2-5 and bsAb-2-6 constructs bind to human and cynomolgus CD3 recombinant proteins, respectively. FIG. 12 show the kinetic curves of bsAb2-5 and bsAb2-6 constructs bind to HBsAg.
row,Binder,Kd [nM]
1,B1,0.0491
2,B2,0.375
3,B3,0.054
4,B4,0.0932
5,B5,0.623
6,B6,0.0321
7,B7,0.348
8,B8,0.00116

# Target: T2, human CD3ε recombinant protein
# Assay: as above
# Protocol: as §2
row,Binder,Kd [nM]
1,B2,29.2
2,B3,35.3
3,B4,12.4
4,B6,0.851

# Target: T4, cynomolgus CD3ε recombinant protein (cynomolgus, UniProt Q95LI5 22-117)
# T4 construct: also called cynoCD3ε; cynomolgus CD38 [sic]
# T4 sequence (looked up): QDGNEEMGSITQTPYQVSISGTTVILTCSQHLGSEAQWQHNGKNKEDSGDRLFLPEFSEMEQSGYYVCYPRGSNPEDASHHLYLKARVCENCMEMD
# Assay: as above
# Protocol: as §2
row,Binder,Kd [nM]
1,B3,36
2,B5,97.4
3,B6,0.737
4,B7,148
5,B8,9.23

# Target: T5, CD3ε expressed on the surface of Jurkat cells (human, UniProt P07766 23-207)
# T5 construct: whole, on cells; also called CD3 expressed on human leukemic T cell line Jurkat; hCD3ε
# T5 sequence (P07766 23-207): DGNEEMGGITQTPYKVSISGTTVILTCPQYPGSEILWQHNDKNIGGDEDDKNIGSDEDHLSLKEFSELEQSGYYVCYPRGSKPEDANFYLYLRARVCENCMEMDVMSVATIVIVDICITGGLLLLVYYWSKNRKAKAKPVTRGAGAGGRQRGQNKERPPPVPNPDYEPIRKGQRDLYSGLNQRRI
# Assay: flow cytometry on Jurkat cells (panel title: Binding with CD3+ T cell), MFI
row,Binder,EC50 (read off the curve) [nM]
1,B10,~0.05
